# PMC6980540
# How the values were obtained:
# [1] = target: Spa47 (Shigella T3SS ATPase), wild-type (S. flexneri) (UniProt P0A1C1)
# [2] = target: Spa47 (Shigella T3SS ATPase), wild-type (S. flexneri) (UniProt P0A1C1); remark: listed apart in the source
substance,measurement,setting,value
"Spa47 (Shigella T3SS ATPase), wild-type (from UniProt P0A1C1 1-430) (enzyme)",ATPase activity of the Spa47 oligomer formed in vitro by concentrating the monomer to ~200 μM ((μmol ADP/min) /mg Spa47),[1],1.5
same,ATPase activity of the isolated monomeric Spa47 before its conversion to oligomer ((μmol ADP/min) /mg Spa47),[1],0.11
same,ATP hydrolysis rate (normalized for enzyme concentration) of monomeric Spa47 as a function of enzyme concentration,[2],3 fold
